For seven molecules, activity results are on record in patent US20260022354, “TRANSPOSASES AND USES THEREOF” (Poseida Therapeutics, Inc., published 2026).

Sequences and labels used below:
T1: GFP1 Right TAL-PBx (synthetic)
T1 chain: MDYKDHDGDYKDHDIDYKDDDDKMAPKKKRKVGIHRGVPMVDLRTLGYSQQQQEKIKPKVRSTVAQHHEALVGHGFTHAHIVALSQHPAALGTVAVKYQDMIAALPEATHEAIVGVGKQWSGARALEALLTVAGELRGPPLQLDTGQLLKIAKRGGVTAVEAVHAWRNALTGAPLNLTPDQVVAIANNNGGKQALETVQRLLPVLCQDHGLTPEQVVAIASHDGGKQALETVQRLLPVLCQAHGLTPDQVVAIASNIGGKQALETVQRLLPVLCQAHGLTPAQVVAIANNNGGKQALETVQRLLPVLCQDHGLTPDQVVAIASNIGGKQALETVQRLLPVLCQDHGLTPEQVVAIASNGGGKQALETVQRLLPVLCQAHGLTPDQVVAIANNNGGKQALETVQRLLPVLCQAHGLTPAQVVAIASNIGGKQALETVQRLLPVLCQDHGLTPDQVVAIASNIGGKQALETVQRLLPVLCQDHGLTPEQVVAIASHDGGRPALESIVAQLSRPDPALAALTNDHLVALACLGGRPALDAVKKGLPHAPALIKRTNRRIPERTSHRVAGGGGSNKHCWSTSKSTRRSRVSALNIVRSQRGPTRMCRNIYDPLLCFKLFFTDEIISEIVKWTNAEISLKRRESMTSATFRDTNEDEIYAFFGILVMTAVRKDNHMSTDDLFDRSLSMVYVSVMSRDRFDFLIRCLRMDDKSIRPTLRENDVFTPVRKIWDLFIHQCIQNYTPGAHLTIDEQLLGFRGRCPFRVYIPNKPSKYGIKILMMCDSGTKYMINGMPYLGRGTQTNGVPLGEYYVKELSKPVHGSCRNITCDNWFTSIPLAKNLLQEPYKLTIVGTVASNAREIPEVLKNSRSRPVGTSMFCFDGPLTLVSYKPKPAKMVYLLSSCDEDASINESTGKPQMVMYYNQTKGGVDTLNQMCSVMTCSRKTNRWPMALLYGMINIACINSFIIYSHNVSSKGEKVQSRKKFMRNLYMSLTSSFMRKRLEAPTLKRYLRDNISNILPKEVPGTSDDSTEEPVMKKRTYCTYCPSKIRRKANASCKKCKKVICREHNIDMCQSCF

B1: GFP1 Right 12bp TTTAAA (dsDNA)
DNA 1: TGCAGATGAACGCAATCTCCGGTTTAAATACTGACTGAAGTTCATCTGCA
DNA 2: TGCAGATGAACTTCAGTCAGTATTTAAACCGGAGATTGCGTTCATCTGCA
B2: GFP1 Right 12bp CTTAAA (dsDNA)
DNA 1: B1 DNA 1 with T23C
DNA 2: B1 DNA 2 with A28G
B3: GFP1 Right 13bp CTTAAC (dsDNA)
DNA 1: TGCAGATGAACGCAATCTCACGGCTTAACTACTGACCTGAAGTTCATCTGCA
DNA 2: TGCAGATGAACTTCAGGTCAGTAGTTAAGCCGTGAGATTGCGTTCATCTGCA
B4: GFP1 Right 13bp CTTAAG (dsDNA)
DNA 1: B3 DNA 1 with C29G
DNA 2: B3 DNA 2 with G24C
B5: GFP1 Right 13bp TTTAAA (dsDNA)
DNA 1: B3 DNA 1 with C24T, C29A
DNA 2: B3 DNA 2 with G24T, G29A
B6: GFP1 Right 13bp CTTAAA (dsDNA)
DNA 1: B3 DNA 1 with C29A
DNA 2: B3 DNA 2 with G24T
B7: GFP1 Right 13bp TTTAAG (dsDNA)
DNA 1: B3 DNA 1 with C24T, C29G
DNA 2: B3 DNA 2 with G24C, G29A

Where a chain is given by its changes, count along the chain named.

The target of the data set is T1, GFP1 Right TAL-PBx. In words: cell_activity; HEK293T. The settings on record: tags: PBx fusion; chain copies: 2 (palindromic half-sites; inferred). How it is done:
Each reporter plasmid and donor plasmid were cotransfected into HEK293T cells with the GFP1 Right TAL-PBx expression plasmid (SEQ ID No. 77). […] HEK293T cells were plated in 24 well plates in 500 μL of DMEM medium supplemented with 10% FBS. The following day, a transfection mixture containing 50 ng of the TAL-ssSPB expression vector, 225 ng of the reporter plasmid, 225 ng of donor plasmid and 1 μL of JetPrime transfection reagent in a total volume of 50 μL of JetPrime buffer were assembled. The mixture was added to the HEK293T cells and the cells were incubated for four days at 37° C. at 5% CO2, splitting the cells 1:6 on day one. The percentage of on-target site-specific transposition positive cells for the various constructs were determined by FACS analysis on day 4.
When the reporter and donor plasmids are co-transfected into cells along with TAL-PBx, TAL-PBx catalyzes the excision of the transposon from the donor plasmid and its site-specific integration into the TTAA target site of the reporter plasmid. Following site-specific transposition, transcription, splicing, and translation, a reconstituted GFP coding sequence is produced (DNA SEQ ID No. 75; Amino acid SEQ ID No. 76) and fluorescence can be detected. The percentage of on-target site-specific transposition positive cells for the various spacer length constructs were determined by FACS analysis and the results are shown in Table 9.
The molecule B1 had an activity of 30.8 % GFP+ cells.
The value for B2 was 34.6 % GFP+ cells; that for B3 was 20.9 % GFP+ cells.
In the case of B4 it was 24.7 % GFP+ cells; in that of B5, 27 % GFP+ cells; in that of B6, 32.8 % GFP+ cells.
In the case of B7 it was 32.2 % GFP+ cells.
